Data as given in JP2003513027A.
Values joined by “and” are separate entries in the source; they are usually repeats but may differ in a detail not shown here. Identical values can stand only once.

How the values were obtained:
[1] = molecular target: Cu-OxLDL (copper-oxidised low density lipoprotein); assay: cell-based or functional assay
[2] = molecular target: Cu-OxLDL (copper-oxidised low density lipoprotein); assay: 125I-Cu-OxLDL binding to mouse peritoneal macrophages on ice, IK17 as competitor, % of control without competitor
[3] = molecular target: MDA-LDL (malondialdehyde-modified low density lipoprotein); assay: direct binding and competition assays with affinity-purified Fab

degradation of 125I-Cu-OxLDL by macrophages (TCA-soluble 125I in the medium), % inhibition [1]: 50% and 65% | % inhibition of the binding of 125I-Cu-OxLDL to macrophages [2]: 70% and 85% | Kd [3]: 0.037 µM
Substance: IK17 human monoclonal IgG Fab
